Results published in patent US20210032312A1 (Janssen / Centocor, published 2021).
Changes are numbered by the printed parent chain. One block for each binder: values may come before it.

Tests used:
[1] = target: T1, cynomolgus monkey CD8 alpha on primary cynomolgus CD8+ T cells (cynomolgus monkey, UniProt P01732 23-235 (human entry)); test: flow cytometry, cyno CD8+ T cells
T1 construct: also called Cyno CD8alpha; cyno CD8A

human CD8A-Fc (in house) = target: T2, human CD8A-Fc (in house) (human, UniProt P01732 22-182, limits assumed); test: SPR (ProteOn), captured hCD8A-Fc
T2 construct: captured by goat anti-human Fc on the ProteOn chip; also called hCD8A-Fc; recombinant human CD8 alpha; not shown: linker/tag and Fc of human IgG1

[2] = target: T3, human CD8 alpha (CD8A) on primary human CD8+ T cells (human, UniProt P01732 22-235); test: flow cytometry, human CD8+ T cells
T3 construct: whole, on cells; also called hCD8A
T3 sequence (P01732 22-235): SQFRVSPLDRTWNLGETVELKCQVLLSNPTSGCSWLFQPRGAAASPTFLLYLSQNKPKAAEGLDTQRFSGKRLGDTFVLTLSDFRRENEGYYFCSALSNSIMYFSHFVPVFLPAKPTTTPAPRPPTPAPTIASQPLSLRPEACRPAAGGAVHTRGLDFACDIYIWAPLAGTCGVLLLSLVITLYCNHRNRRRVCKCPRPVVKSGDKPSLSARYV

T2 sequence (P01732 22-182 limits assumed): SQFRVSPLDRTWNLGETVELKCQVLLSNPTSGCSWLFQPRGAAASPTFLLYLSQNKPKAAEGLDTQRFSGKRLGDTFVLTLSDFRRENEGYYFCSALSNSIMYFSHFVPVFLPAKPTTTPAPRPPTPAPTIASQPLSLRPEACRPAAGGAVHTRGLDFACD
T1 sequence (P01732 other isoform, or with tags, fused parts or gaps limits assumed): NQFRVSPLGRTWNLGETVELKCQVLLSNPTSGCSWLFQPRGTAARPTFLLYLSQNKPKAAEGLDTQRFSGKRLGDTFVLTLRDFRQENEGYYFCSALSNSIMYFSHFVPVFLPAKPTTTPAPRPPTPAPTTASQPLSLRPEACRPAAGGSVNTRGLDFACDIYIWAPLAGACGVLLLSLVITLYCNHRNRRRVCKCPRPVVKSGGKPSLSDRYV

B1: P283ER9P1365_E2 (designed binder)
chain: LPAPKNLVVSRVTEDSARLSWTAPDAAFDSFYIPYRESEFRGEAIALPVPGSERSYDLTGLKPGTKYRVIIIGVKGGEFSQPLAAIFTT
notes: FN3 domain
Cyno T-cell Binding 0.2 uM (MFI) [1]: 1900 MFI
Cyno T-cell Binding 2 uM (MFI) [1]: 17200 MFI
koff (human CD8A-Fc (in house)): 0.000311 s⁻¹
Human T-cell Binding 0.2 uM (MFI) [2]: 2870 MFI
Human T-cell Binding 2 uM (MFI) [2]: 20000 MFI

B3: P283ER9P1365_H3 (designed binder)
chain: B1 chain with A84S
notes: FN3 domain
Cyno T-cell Binding 0.2 uM (MFI) [1]: 436 MFI
Cyno T-cell Binding 2 uM (MFI) [1]: 19600 MFI
koff (human CD8A-Fc (in house)): 0.000375 s⁻¹
Human T-cell Binding 0.2 uM (MFI) [2]: 953 MFI
Human T-cell Binding 2 uM (MFI) [2]: 18000 MFI

B4: P283ER9P1365_A7 (designed binder)
chain: B1 chain with R36W, F40V, R41Y, K66E, R68Q, I70S, E78V, F79Y
notes: FN3 domain
Cyno T-cell Binding 0.2 uM (MFI) [1]: 2960 MFI
Cyno T-cell Binding 2 uM (MFI) [1]: 36600 MFI
koff (human CD8A-Fc (in house)): 0.000786 s⁻¹
Human T-cell Binding 0.2 uM (MFI) [2]: 1320 MFI
Human T-cell Binding 2 uM (MFI) [2]: 18500 MFI

B5: P283HR7P1368_F10 (designed binder)
chain: B1 chain with A84G
notes: FN3 domain
Cyno T-cell Binding 0.2 uM (MFI) [1]: 1020 MFI
Cyno T-cell Binding 2 uM (MFI) [1]: 16100 MFI
koff (human CD8A-Fc (in house)): 0.000165 s⁻¹
Human T-cell Binding 0.2 uM (MFI) [2]: 2660 MFI
Human T-cell Binding 2 uM (MFI) [2]: 18800 MFI

B7: P283ER9P1365_F4 (designed binder)
chain: B1 chain with R68S, A84G
notes: FN3 domain
Cyno T-cell Binding 0.2 uM (MFI) [1]: 2040 MFI
Cyno T-cell Binding 2 uM (MFI) [1]: 43200 MFI
koff (human CD8A-Fc (in house)): 0.000216 s⁻¹
Human T-cell Binding 0.2 uM (MFI) [2]: 2600 MFI
Human T-cell Binding 2 uM (MFI) [2]: 24100 MFI

B8: P283HR7P1368_F6 (designed binder)
chain: LPAPKNLVVSRVTEDSARLSWTAPDAAFDSFGIGYIEWVHRGEAISLHVPGSERSYDLTGLKPGTEYVVAIVGVKGGEPSTPLGAPFTT
notes: FN3 domain
Cyno T-cell Binding 0.2 uM (MFI) [1]: 3540 MFI
Cyno T-cell Binding 2 uM (MFI) [1]: 20600 MFI
koff (human CD8A-Fc (in house)): 0.00018 s⁻¹
Human T-cell Binding 0.2 uM (MFI) [2]: 3510 MFI
Human T-cell Binding 2 uM (MFI) [2]: 14300 MFI

B9: P283ER9P1365_A1 (designed binder)
chain: B8 chain with G34A, I36V, V39W, H48P, V68N, A70I, V72T, E78I, T81H, P86I
notes: FN3 domain
Cyno T-cell Binding 0.2 uM (MFI) [1]: 1360 MFI
Cyno T-cell Binding 2 uM (MFI) [1]: 9680 MFI
koff (human CD8A-Fc (in house)): 0.000467 s⁻¹
Human T-cell Binding 0.2 uM (MFI) [2]: 3860 MFI
Human T-cell Binding 2 uM (MFI) [2]: 25500 MFI

B10: P283HR7P1368_G10 (designed binder)
chain: B8 chain with G34A, I36V, V39W, H48P, V68W, A70T, V72L, E78I, P79I, P86S
notes: FN3 domain
Cyno T-cell Binding 0.2 uM (MFI) [1]: 2660 MFI
Cyno T-cell Binding 2 uM (MFI) [1]: 23800 MFI
koff (human CD8A-Fc (in house)): 0.00145 s⁻¹
Human T-cell Binding 0.2 uM (MFI) [2]: 753 MFI
Human T-cell Binding 2 uM (MFI) [2]: 8120 MFI

B11: P283HR7P1368_G11 (designed binder)
chain: LPAPKNLVVSRVTEDSARLSWTAPDAAFDSFGIGYAEPAVTGEAISLSVPGSERSYDLTGLKPGTEYWVVIIGVKGGINSYPLGASFTT
notes: FN3 domain
Cyno T-cell Binding 0.2 uM (MFI) [1]: 1340 MFI
Cyno T-cell Binding 2 uM (MFI) [1]: 14900 MFI
koff (human CD8A-Fc (in house)): 0.000373 s⁻¹
Human T-cell Binding 0.2 uM (MFI) [2]: 2650 MFI
Human T-cell Binding 2 uM (MFI) [2]: 19300 MFI

Now from value to binder:

Cyno T-cell Binding 0.2 uM (MFI) [1]: 1880 MFI
Cyno T-cell Binding 2 uM (MFI) [1]: 24000 MFI
koff (human CD8A-Fc (in house)): 0.00115 s⁻¹
Human T-cell Binding 0.2 uM (MFI) [2]: 644 MFI
Human T-cell Binding 2 uM (MFI) [2]: 8000 MFI
B2: P283ER9P1365_C1 (designed binder)
chain: B1 chain with R36W, F40V, R41Y, P50T, K66E, R68Q, I70S, E78V, F79Y
notes: FN3 domain

Cyno T-cell Binding 0.2 uM (MFI) [1]: 383 MFI
Cyno T-cell Binding 2 uM (MFI) [1]: 489 MFI
koff (human CD8A-Fc (in house)): 0.00367 s⁻¹
Human T-cell Binding 0.2 uM (MFI) [2]: 318 MFI
Human T-cell Binding 2 uM (MFI) [2]: 1280 MFI
B6: P283ER9P1365_G1 (designed binder)
chain: B1 chain with P48S, A84G
notes: FN3 domain

Cyno T-cell Binding 0.2 uM (MFI) [1]: 2690 MFI
Cyno T-cell Binding 2 uM (MFI) [1]: 30100 MFI
koff (human CD8A-Fc (in house)): 0.000288 s⁻¹
Human T-cell Binding 0.2 uM (MFI) [2]: 3400 MFI
Human T-cell Binding 2 uM (MFI) [2]: 23000 MFI
B12: P283ER9P1365_B6 (designed binder)
chain: B11 chain with A39V, S86I
notes: FN3 domain

Cyno T-cell Binding 0.2 uM (MFI) [1]: 950 MFI
Cyno T-cell Binding 2 uM (MFI) [1]: 11100 MFI
koff (human CD8A-Fc (in house)): 0.0013 s⁻¹
Human T-cell Binding 0.2 uM (MFI) [2]: 1910 MFI
Human T-cell Binding 2 uM (MFI) [2]: 15200 MFI
B13: P283HR7P1368_D2 (designed binder)
chain: B11 chain with D29N
notes: FN3 domain

Cyno T-cell Binding 0.2 uM (MFI) [1]: 1310 MFI
Cyno T-cell Binding 2 uM (MFI) [1]: 13300 MFI
koff (human CD8A-Fc (in house)): 0.000349 s⁻¹
Human T-cell Binding 0.2 uM (MFI) [2]: 2220 MFI
Human T-cell Binding 2 uM (MFI) [2]: 12700 MFI
B14: P283HR7P1368_C3 (designed binder)
chain: B11 chain with E53K
notes: FN3 domain
